The values that follow are results of earlier work, collected in paper PMC11747410.

Where two headings read alike, the source gives them in different places.

For data set [1], the target named is CD166/ALCAM (Homo sapiens) (UniProt Q13740).
The target is the same in data set [2]. The source holds these as a separate data set.

In general, Kd refers to the constant that tells how readily two partners part at equilibrium. As to CD6 (from UniProt P30203), in data set [1], the Kd was 0.7 µM.
With CD166/ALCAM (from UniProt Q13740), the Kd in data set [2] is 38.5 µM.
